The values below come from paper PMC4183148.

The target in assay [1] is PKM2 (pyruvate kinase, M2 isoform), endogenous (human (endogenous in HEK293T, H1299, U87)) (UniProt P14618). The assay can be described thus: SEC.
Assay [2] shares this target. The experiment in a line: SEC. This is another data set of the same source.

Several values for one entry are separate records, joined by “and”; a condition that tells them apart may be missing. Identical values can stand only once. Like-named read-outs stand apart in the source and are kept apart here.

PKM2 (pyruvate kinase, M2 isoform), endogenous, P14618 1-531 (natural protein; other documents disagree on this pair), sequence (P14618 whole entry, canonical isoform): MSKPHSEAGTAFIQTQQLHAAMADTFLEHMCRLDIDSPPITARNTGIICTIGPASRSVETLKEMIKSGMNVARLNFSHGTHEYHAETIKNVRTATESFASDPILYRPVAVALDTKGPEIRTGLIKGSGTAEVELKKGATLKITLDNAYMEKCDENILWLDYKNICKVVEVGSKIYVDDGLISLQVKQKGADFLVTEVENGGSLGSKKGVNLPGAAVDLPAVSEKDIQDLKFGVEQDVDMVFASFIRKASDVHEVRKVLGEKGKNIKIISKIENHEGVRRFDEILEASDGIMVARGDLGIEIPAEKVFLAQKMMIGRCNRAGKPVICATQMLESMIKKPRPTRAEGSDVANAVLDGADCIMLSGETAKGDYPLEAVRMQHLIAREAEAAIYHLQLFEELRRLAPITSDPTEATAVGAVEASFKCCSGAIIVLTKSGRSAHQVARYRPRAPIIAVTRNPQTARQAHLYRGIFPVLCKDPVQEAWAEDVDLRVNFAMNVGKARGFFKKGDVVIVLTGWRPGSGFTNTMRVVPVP

Regarding “PKM2 (pyruvate kinase, M2 isoform), endogenous, P14618 1-531 (natural protein; other documents disagree on this pair)”, the percent dimeric form was 66.5% and 56% in assay [1]; 78.9% in assay [2]. Besides, the percent tetrameric form in assay [1] was 26.2% and 43.8%; in assay [2], 20.1%.
